Reference: US20030073236A1 (published 2003)

Legend:
[1] = target: T1, SV40 Large T Antigen (T-Ag) (SV40, UniProt P03070 1-708); experiment: co-immunoprecipitation from metabolically labeled AT-2 cardiomyocytes
T1 construct: also called SV40 T-Ag; recombinant SV40 T-Ag

[2] = target: T1, SV40 Large T Antigen (T-Ag); experiment: immune precipitation / Western blot, NIH-3T3 cells co-transfected with CMV-p193myc and CMV-T-Ag

B1: p193 (mouse p193, full length) (other)
chain: MVGELRYREFRVPLGPGLHAYPDELIRQRVGHNGHPEYQIRWLILRRGDDGDRDSTVDCKAEHILLWMSDDEIYANCHKMLGENGQVIAPSRESTEAGALDKSVLGEMETDVKSLIQRALRQLEECVGTVPPAPLLHTVHVLSAYASIEPLTGIFKDRRVVNLLMHMLSSPDYQIRWSAGRMIQALSSHDAGTRTQILLSLSQQEAIEKHLDFDSRCALLALFAQATLTEHPMSFEGVQLPQVPGRLLFSLVKRYLHVTFLLDRLNGDAGDQGAQNNFSPEELNVGRGRLELEFSMAMGTLISELVQAMRWDGASSRPESSSSSTFQPRPAQFRPYTQRFRRSRRFRPRASFASFNTYALYVRDTLRPGMRVRMLENYEEIAAGDEGQFRQSNDGVPPAQVLWDSTGHTYWVHWHMLEILGFEEDIEDVIDIEELQELGANGALSIVPPSQRWKPITQLFAEPYVVPEEEDREESENLTQAEWWELLFFIRQLSEAERLHIVDLLQDHLEEERVLDYDMLPELTVPVDLAQDLLLSLPQQLEDSALRDLFSCSVYRKYGPEVLVGHLSYPFVPGAQPNLFGANEESEAKDPPLQSASPALQRLVESLGPEGEVLVELEQALGSEAPQETEVKSCLLQLQEQPQPFLALMRSLDTSASNKTLHLTVLRILMQLVNFPEALLLPWHEAMDACVTCLRSPNTDREVLQELIFFLHRLTTTSRDYAVILNQHGARDAISKVLEKHRGKLELAQELRDMVSKCEKHAHLYRKLTTNILGGCIQMVLGQIEDHRRTHRPIQIPFFDVFLRYLCQGSSEEMKKNRYWEKVEVSSNPQRASRLTDRNPKTYWESSGRAGSHFITLHMRPGVIIRQLTLLVAGEDSSYMPAWVVVCGGNSIKSVNKELNTVNVMPSASRVTLLENLTRFWPIIQIRIKRCQQGGINTRIRGLEVLGPKPTFWPVFREQLCRHTRLFYMVRAQAWSQDIAEDRRSLLHLSSRLNGALRHEQNFAERFLPDMEAAQALSKTCWEALVSPLVQNITSPDEDSTSSLGWLLDQYLGCREAAYNPQSRAAAFSSRVRRLTHLLVHVEPREAAPPVVAIPRSKGRNRIHDWSYLITRGLPSSIMKNLTRCWRSVVEEQMNKFLSASWKDDDFVPRYCERYYVLQKSSSELFGPRAAFLLAMRNGCADAVRRLPFLRAAHVKQQFARHIDQRIQGSRMGGARGMEMLAQLQRCLESVLIFSPLEIATTFEHYYQHYMADRLLSVGSSWLEGAVLEQIGPCFPSRLPQQMLQSLNVSEELQRQFHVYQLQQLDQELLKLEDTEKKIQVAHEDSGREDKSKKEEAIGEAAAVAMAEEEDQGKKEEGEEEGEGEDEEEERYYKGTMPEVCVLVVTPRFWPVASVCQMLNPATCLPAYLRGTINHYTNFYSKSQSRSSLEKEPQRRLQWTWQGRAEVQFGGQILHVSTVQMWLLLHLNNQKEVSVESLQAISELPPDVLHRAIGPLTSSRGPLDLQEQKNVPGGVLKIRDDSEEPRPRRGNVWLIPPQTYLQAEAEEGRNMEKRRNLLNCLVVRILKAHGDEGLHVDRLVYLVLEAWEKGPCPARGLVSSLGRGATCRSSDVLSCILHLLVKGTLRRHDDRPQVLYYAVPVTVMEPHMESLNPGSAGPNPPLTFHTLQIRSRGVPYASCTDNHTFSTFR
modifications: 35S-methionine labelled in the immune precipitation experiments
notes: also called in vitro translated p193
B1: binds [1].

B2: p193myc (p193 protein harboring a C-terminal myc epitope tag, from CMV-p193myc) (other, not shown: small tags and cut ends)
chain: MVGELRYREFRVPLGPGLHAYPDELIRQRVGHNGHPEYQIRWLILRRGDDGDRDSTVDCKAEHILLWMSDDEIYANCHKMLGENGQVIAPSRESTEAGALDKSVLGEMETDVKSLIQRALRQLEECVGTVPPAPLLHTVHVLSAYASIEPLTGIFKDRRVVNLLMHMLSSPDYQIRWSAGRMIQALSSHDAGTRTQILLSLSQQEAIEKHLDFDSRCALLALFAQATLTEHPMSFEGVQLPQVPGRLLFSLVKRYLHVTFLLDRLNGDAGDQGAQNNFSPEELNVGRGRLELEFSMAMGTLISELVQAMRWDGASSRPESSSSSTFQPRPAQFRPYTQRFRRSRRFRPRASFASFNTYALYVRDTLRPGMRVRMLENYEEIAAGDEGQFRQSNDGVPPAQVLWDSTGHTYWVHWHMLEILGFEEDIEDVIDIEELQELGANGALSIVPPSQRWKPITQLFAEPYVVPEEEDREESENLTQAEWWELLFFIRQLSEAERLHIVDLLQDHLEEERVLDYDMLPELTVPVDLAQDLLLSLPQQLEDSALRDLFSCSVYRKYGPEVLVGHLSYPFVPGAQPNLFGANEESEAKDPPLQSASPALQRLVESLGPEGEVLVELEQALGSEAPQETEVKSCLLQLQEQPQPFLALMRSLDTSASNKTLHLTVLRILMQLVNFPEALLLPWHEAMDACVTCLRSPNTDREVLQELIFFLHRLTTTSRDYAVILNQHGARDAISKVLEKHRGKLELAQELRDMVSKCEKHAHLYRKLTTNILGGCIQMVLGQIEDHRRTHRPIQIPFFDVFLRYLCQGSSEEMKKNRYWEKVEVSSNPQRASRLTDRNPKTYWESSGRAGSHFITLHMRPGVIIRQLTLLVAGEDSSYMPAWVVVCGGNSIKSVNKELNTVNVMPSASRVTLLENLTRFWPIIQIRIKRCQQGGINTRIRGLEVLGPKPTFWPVFREQLCRHTRLFYMVRAQAWSQDIAEDRRSLLHLSSRLNGALRHEQNFAERFLPDMEAAQALSKTCWEALVSPLVQNITSPDEDSTSSLGWLLDQYLGCREAAYNPQSRAAAFSSRVRRLTHLLVHVEPREAAPPVVAIPRSKGRNRIHDWSYLITRGLPSSIMKNLTRCWRSVVEEQMNKFLSASWKDDDFVPRYCERYYVLQKSSSELFGPRAAFLLAMRNGCADAVRRLPFLRAAHVKQQFARHIDQRIQGSRMGGARGMEMLAQLQRCLESVLIFSPLEIATTFEHYYQHYMADRLLSVGSSWLEGAVLEQIGPCFPSRLPQQMLQSLNVSEELQRQFHVYQLQQLDQELLKLEDTEKKIQVAHEDSGREDKSKKEEAIGEAAAVAMAEEEDQGKKEEGEEEGEGEDEEEERYYKGTMPEVCVLVVTPRFWPVASVCQMLNPATCLPAYLRGTINHYTNFYSKSQSRSSLEKEPQRRLQWTWQGRAEVQFGGQILHVSTVQMWLLLHLNNQKEVSVESLQAISELPPDVLHRAIGPLTSSRGPLDLQEQKNVPGGVLKIRDDSEEPRPRRGNVWLIPPQTYLQAEAEEGRNMEKRRNLLNCLVVRILKAHGDEGLHVDRLVYLVLEAWEKGPCPARGLVSSLGRGATCRSSDVLSCILHLLVKGTLRRHDDRPQVLYYAVPVTVMEPHMESLNPGSAGPNPPLTFHTLQIRSRGVPYASCTDNHTFSTFR
notes: Expressed in NIH-3T3 cells co-transfected with CMV-T-Ag; also called CMV-p193myc product
B2: binds [2].
